Residue numbers refer to the chain shown, from its start. Names may count otherwise. Blank lines part the entries; values can stand above or below the binder they belong to.
Experiments:
[1] = target: T1, Human CD28 (ELISAs of Examples 4 and 13) (human, UniProt P10747 19-152, limits assumed); assay: ELISA, blocking of CD28-CD80
[2] = target: T2, Recombinant mouse CD28-Fc (mouse, UniProt P31041 20-150); assay: ELISA, coated CD28-Fc
T2 construct: not shown: Fc part

[3] = target: T3, Recombinant human CD28-Fc (human, UniProt P10747 19-152); assay: ELISA, coated CD28-Fc
T3 construct: not shown: Fc part

[4] = target: T4, His-tagged human CTLA4 protein (human, UniProt P16410 36-161, limits assumed); assay: Octet BLI, mAb captured;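 note: Anti-human Fc biosensors captured the antibodies, then His-tagged protein analytes at 100 nM associated for 300 s and dissociated for 300 s, fitted by a 1:1 Langmuir model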
T4 construct: not shown: His tag
T4 sequence (P16410 36-161 limits assumed): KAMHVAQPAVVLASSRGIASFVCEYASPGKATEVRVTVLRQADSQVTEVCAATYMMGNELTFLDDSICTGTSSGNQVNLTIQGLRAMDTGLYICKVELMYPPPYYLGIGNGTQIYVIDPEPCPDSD

[5] = target: T5, His-tagged human CD28 protein (human, UniProt P10747 19-152); assay: Octet BLI, mAb captured;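 note: Anti-human Fc biosensors captured the antibodies, then His-tagged protein analytes at 100 nM associated for 300 s and dissociated for 300 s, fitted by a 1:1 Langmuir model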
T5 construct: not shown: His tag

Human CD28 on cells = target: T6, Human CD28 on cells (human, UniProt P10747 19-220); assay: flow cytometry, Jurkat cells
T6 construct: Jurkat E6-1 cells, primary human T cells, or transfected HEK293F cells; also called CD28 on Jurkat cells; CD28 on human CD3+ T cells
Method: Next, the cells were washed twice with DPBS and further incubated with a APC-anti-human IgG Fc secondary antibody (1 μg/mL, 100 μL/well, Biolegend) for 30 minutes at 4° C. Finally, the cells were washed twice with DPBS and suspended in FACS buffer for flow cytometry analysis. For analysis, the Mean Fluorescence Intensity (MFI) values versus concentrations were plotted using FlowJo 10 software (FlowJo LLC) and the data were further fitted with four-parameter non-linear regression to obtain EC₅₀ values by GraphPad Prism version 7 for Windows, GraphPad Software, La Jolla California USA, www.graphpad.com.

B7H3 on MDA-MB-231 cells = target: T7, B7H3 on MDA-MB-231 cells (UniProt Q5ZPR3 29-534, limits assumed); assay: flow cytometry, MDA-MB-231 cells
T7 construct: whole, on cells
T7 sequence (looked up): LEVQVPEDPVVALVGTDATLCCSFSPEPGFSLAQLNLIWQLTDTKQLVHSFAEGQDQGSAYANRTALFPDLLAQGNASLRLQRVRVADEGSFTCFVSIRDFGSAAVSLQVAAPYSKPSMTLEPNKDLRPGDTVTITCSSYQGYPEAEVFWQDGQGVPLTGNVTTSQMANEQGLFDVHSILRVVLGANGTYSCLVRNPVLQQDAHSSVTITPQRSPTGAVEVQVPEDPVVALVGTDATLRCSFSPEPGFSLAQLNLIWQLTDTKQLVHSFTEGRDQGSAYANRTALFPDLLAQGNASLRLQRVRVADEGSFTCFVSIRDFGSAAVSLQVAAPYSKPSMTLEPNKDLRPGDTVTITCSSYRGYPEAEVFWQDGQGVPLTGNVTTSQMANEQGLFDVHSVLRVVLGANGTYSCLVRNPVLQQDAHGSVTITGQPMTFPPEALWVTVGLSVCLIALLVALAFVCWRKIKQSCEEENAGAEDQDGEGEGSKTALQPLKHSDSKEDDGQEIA
Method: An isotype antibody was included as a negative control.
MDA-MB-231 cells were cultured and seeded in 96-well plates at 1.0×10⁵ cells/well and incubated with serially diluted test BsAbs for 60 minutes at 4° C. in 2% FBS/RPMI1640 buffer. Next, the cells were washed twice with DPBS and further incubated with secondary APC-anti-human IgG Fe antibody (1:400 dilution) for 30 minutes at 4° C. Finally, the cells were washed twice with DPBS and resuspended in FACS buffer for flow cytometry analysis. For analysis, the MFI values versus concentrations were plotted using FlowJo 10 software (FlowJo LLC) and the data were further fitted with four-parameter non-linear regression to obtain EC₅₀ values by GraphPad Prism version 7 for Windows.

Mouse CD28 on cells = target: T8, Mouse CD28 on cells (mouse, UniProt P31041 20-218); assay: flow cytometry on mouse T cells, median fluorescence intensity; drawn table; set-up: AUC: unit not given beside the values
T8 construct: also called CD28 on mouse T cells
T8 sequence (P31041 20-218 limits assumed): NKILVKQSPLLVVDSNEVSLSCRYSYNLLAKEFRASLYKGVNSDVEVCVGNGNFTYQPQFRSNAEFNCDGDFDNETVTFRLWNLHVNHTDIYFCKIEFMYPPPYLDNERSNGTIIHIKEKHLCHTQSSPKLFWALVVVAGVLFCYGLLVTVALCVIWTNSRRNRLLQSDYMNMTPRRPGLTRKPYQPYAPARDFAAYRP

[6] = target: T1, Human CD28 (ELISAs of Examples 4 and 13); assay: ELISA

T2 sequence (P31041 20-150 limits assumed): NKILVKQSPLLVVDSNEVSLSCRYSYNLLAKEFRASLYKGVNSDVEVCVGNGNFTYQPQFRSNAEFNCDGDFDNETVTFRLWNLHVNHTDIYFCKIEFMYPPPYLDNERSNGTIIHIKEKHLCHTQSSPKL

B1: TY24869 (antibody, human IgG4 S228P, kappa, V domains shown)
VH: QVQLVQSGAEVKKPGSSVKVSCKASGYSISSGYHWGWIRQAPGQGLEWIGAIYHSGSTYYSPSLKSRVTITADKSTSTAYMELSSLRSEDTAVYYCARSGLVYYAFDYWGQGTLVTVSS
VL: DIQLTQSPSSLSASVGDRVTITCRASQGIGSYLAWYQQKPGKAPKLLIYDASSLESGVPSRFSGSGSGTDFTLTISSLQPEDFATYYCQQYSTSPLTFGQGTKVEIKR
notes: hIgG4/S241P
IC50 [1]: 0.55 nM | EC50 [2]: > 14.8 nM | EC50 [3]: 0.87 nM | Kd [4]: 1.2 nM | koff [4]: 0.000454 s⁻¹ | kon [4]: 379000 M⁻¹ s⁻¹ | Kd [5]: 2.73 nM | koff [5]: 0.000128 s⁻¹ | kon [5]: 46800 M⁻¹ s⁻¹ | EC50 (Human CD28 on cells): 1.07 nM

B2: TY24876 (antibody, human IgG4 S228P, kappa, V domains shown)
VH: B1 VH with S30T, S99G, G100P, V102S
VL: DIQLTQSPSSLSASVGDRVTITCRASQSVSRYLAWYQQKPGKAPKLLIYDASNRATGIPSRFSGSGSGTDFTLTISSLQPEDFATYYCQQYYRSPITFGQGTKVEIKR
notes: hIgG4/S241P
IC50 [1]: 0.54 nM | EC50 [2]: 3.93 nM | EC50 [3]: 1.02 nM | Kd [4]: 4.28 nM | koff [4]: 0.000585 s⁻¹ | kon [4]: 137000 M⁻¹ s⁻¹ | Kd [5]: < 0.001 nM | koff [5]: < 1e-07 s⁻¹ | kon [5]: 32500 M⁻¹ s⁻¹ | EC50 (Human CD28 on cells): 0.38 nM

B7: TY24878 (antibody, human IgG4 S228P, kappa, V domains shown)
VH: QVQLVQSGAEVKKPGSSVKVSCKASGFSLSTGGVAVAWIRQAPGQGLEWIGQIYYSGSTYYNPSLKSRVTITADKSTSTAYMELSSLRSEDTAVYYCARSSAHYYFDVWGQGTLVTVSS
VL: DIQLTQSPSSLSASVGDRVTITCRASESVDFQGISFLDWYQQKPGKAPKLLIYDASSLESGVPSRFSGSGSGTDFTLTISSLQPEDFATYYCQQSYRSPITFGQGTKVEIKR
notes: hIgG4/S241P
IC50 [1]: 0.35 nM | EC50 [2]: > 14.8 nM | EC50 [3]: 1.06 nM | Kd [4]: 0.969 nM | koff [4]: 0.00041 s⁻¹ | kon [4]: 423000 M⁻¹ s⁻¹ | Kd [5]: 4.21 nM | koff [5]: 0.000411 s⁻¹ | kon [5]: 97500 M⁻¹ s⁻¹ | EC50 (Human CD28 on cells): 0.39 nM

B9: TY29021 (bispecific antibody, human IgG1, kappa, N297A)
light: DIQLTQSPSSLSASVGDRVTITCRASQSIRKYLNWYQQKPGKAPKLLIYAASTLQSGVPSRFSGSGSGTDFTLTISSLQPEDFATYFCSQGTHVPFTFGQGTKVEIKRTVAAPSVFIFPPSDEQLKSGTASVVCLLNNFYPREAKVQWKVDNALQSGNSQESVTEQDSKDSTYSLSSTLTLSKADYEKHKVYACEVTHQGLSSPVTKSFNRGEC
heavy: EVQLVESGGGLVQPGGSLRLSCAASGFTFSGYGIHWVRQAPGKGLEWIGWISPSGGDTKYAQKFQGRVTISRDNSKNTLYLQLNSLRAEDTAVYYCARGGTVVYFDYWGQGTLVTVSSASTKGPSVFPLAPSSKSTSGGTAALGCLVKDYFPEPVTVSWNSGALTSGVHTFPAVLQSSGLYSLSSVVTVPSSSLGTQTYICNVNHKPSNTKVDKKVEPKSCDKTHTCPPCPAPELLGGPSVFLFPPKPKDTLMISRTPEVTCVVVDVSHEDPEVKFNWYVDGVEVHNAKTKPREEQYASTYRVVSVLTVLHQDWLNGKEYKCKVSNKALPAPIEKTISKAKGQPREPQVYTLPPSRKKLTKNQVKLTCLVKGFYPSDIAVEWESNGQPENNYKTTPPVLDCDGSFFLYSKLTVDKSRWQQGNVFSCSVMHEALHNHYTQKSLSLSPGK
chain: EVQLVESGGGLVQPGGSLRLSCAASGFSLSTGGVGVSWIRQAPGKGLEWIGEIYHSGSTYYSPSLKSRVTISRDNSKNTLYLQLNSLRAEDTAVYYCARYEYYYYDFDYWGQGTLVTVSSGGGGSGGGGSGGGGSGGGGSDIQLTQSPSSLSASVGDRVTITCRASQSVDFHGISFLHWYQQKPGKAPKLLIYAASSLQSGVPSRFSGSGSGTDFTLTISSLQPEDFATYYCQQSYRSPRTFGQGTKVEIKEPKSSDKTHTCPPCPAPELLGGPSVFLFPPKPKDTLMISRTPEVTCVVVDVSHEDPEVKFNWYVDGVEVHNAKTKPREEQYASTYRVVSVLTVLHQDWLNGKEYKCKVSNKALPAPIEKTISKAKGQPREPQVYTDPPSRDELTKNQVSLTCLVDGFYPSDIAVEWESNGQPENCYKTTPPVLDSDGSFFLYSKLTVDKSRWQQGNVFSCSVMHEALHNHYTQDSLSLSPGK
notes: anti-B7H3 Fab x CD28 scFv WT (VH-VL)-Fc; also called TY29021 (WT)
AUC (Mouse CD28 on cells): 549 | Max MFI (Mouse CD28 on cells): 364 | EC50 [6]: 36.4 nM

Continued, values first:

IC50 [1]: 0.42 nM | EC50 [2]: > 1.65 nM | EC50 [3]: 0.9 nM | Kd [4]: 7.17 nM | koff [4]: 0.00313 s⁻¹ | kon [4]: 437000 M⁻¹ s⁻¹ | Kd [5]: < 0.001 nM | koff [5]: < 1e-07 s⁻¹ | kon [5]: 59400 M⁻¹ s⁻¹ | EC50 (Human CD28 on cells): 1.17 nM
B3: TY24879 (antibody, human IgG4 S228P, kappa, V domains shown)
VH: B1 VH with A51S, S61N, V102R, Y108V
VL: DIQLTQSPSSLSASVGDRVTITCAASQDVSTAVAWYQQKPGKAPKLLIYAASSLQSGVPSRFSGSGSGTDFTLTISSLQPEDFATYYCQQSYRSPITFGQGTKVEIKR
notes: hIgG4/S241P

IC50 [1]: 0.42 nM | EC50 [2]: > 44.4 nM | EC50 [3]: 1.34 nM | Kd [4]: 6.63 nM | koff [4]: 0.00311 s⁻¹ | kon [4]: 469000 M⁻¹ s⁻¹ | Kd [5]: 2.68 nM | koff [5]: 0.00019 s⁻¹ | kon [5]: 70800 M⁻¹ s⁻¹ | EC50 (Human CD28 on cells): 0.97 nM
B4: TY24859 (antibody, human IgG4 S228P, kappa, V domains shown)
VH: EVQLVESGGGLVQPGGSLRLSCAASGFSLSTGGVGVGWIRQAPGKGLEWIGEIYHSGSTYYSPSLKSRVTISRDNSKNTLYLQLNSLRAEDTAVYYCARYGYSYYALDYWGQGTLVTVSS
VL: DIQLTQSPSSLSASVGDRVTITCSASSSVGYVQWYQQKPGKAPKLLIYDASNLETGVPSRFSGSGSGTDFTLTISSLQPEDFATYYCQQSYTSPRTFGQGTKVEIKR
notes: hIgG4/S241P

IC50 [1]: 0.27 nM | EC50 [2]: > 1.65 nM | EC50 [3]: 0.57 nM | Kd [4]: 7.64 nM | koff [4]: 0.004 s⁻¹ | kon [4]: 524000 M⁻¹ s⁻¹ | Kd [5]: < 0.001 nM | koff [5]: < 1e-07 s⁻¹ | kon [5]: 58000 M⁻¹ s⁻¹ | EC50 (Human CD28 on cells): 0.7 nM
B5: TY24866 (antibody, human IgG4 S228P, kappa, V domains shown)
VH: B4 VH with S62P, G101E, Y104S, A106G
VL: B1 VL with G28D, G30R, S31K, Y32F, Y91S, S92Y, T93R, L96R
notes: hIgG4/S241P

IC50 [1]: 0.28 nM | EC50 [2]: > 44.4 nM | EC50 [3]: 1.02 nM | Kd [4]: 6.36 nM | koff [4]: 0.00408 s⁻¹ | kon [4]: 641000 M⁻¹ s⁻¹ | Kd [5]: 2.42 nM | koff [5]: 0.000166 s⁻¹ | kon [5]: 68400 M⁻¹ s⁻¹ | EC50 (Human CD28 on cells): 1.09 nM
B6: TY24884 (antibody, human IgG4 S228P, kappa, V domains shown)
VH: QVQLVQSGAEVKKPGSSVKVSCKASGFTFSGYAIHWVRQAPGQGLEWIGQIYHSGSTYYNPSLKSRVTITADKSTSTAYMELSSLRSEDTAVYYCARSGYGGYDFDYWGQGTLVTVSS
VL: DIQLTQSPSSLSASVGDRVTITCRASQSVPRRYLAWYQQKPGKAPKLLIYAASTLQSGVPSRFSGSGSGTDFTLTISSLQPEDFATYYCQQYYRSPITFGQGTKVEIKR
notes: hIgG4/S241P

EC50 (B7H3 on MDA-MB-231 cells): 0.453 nM
B8: TY21601 (antibody, V domains shown)
VH: EVQLVESGGGLVQPGGSLRLSCAASGFTFSGYGIHWVRQAPGKGLEWIGWISPSGGDTKYAQKFQGRVTISRDNSKNTLYLQLNSLRAEDTAVYYCARGGTVVYFDYWGQGTLVTVSS
VL: DIQLTQSPSSLSASVGDRVTITCRASQSIRKYLNWYQQKPGKAPKLLIYAASTLQSGVPSRFSGSGSGTDFTLTISSLQPEDFATYFCSQGTHVPFTFGQGTKVEIK
notes: also called parental anti-B7H3 mAb; B7H3 IgG

Reference: US20250257133A1 (ADAGENE PTE, published 2025)
